One block for each molecule: values may come before it. Where no end group is shown, it is not given here.
Legend:
Caco-2 cells = experiment: Peptide targeting in live Caco-2 cells (fluorescein coupled peptides, confocal microscopy); format: cell-based; conditions: polarised Caco-2 monolayer, overnight incubation, 2 mM or 5 mM peptide; FIG. 5
Method: Caco-2 cells were grown on polycarbonate transwell filters (12 mm diameter, 0.4 μm pore size; Costar) in same media as HEK 293 cells) until a fully polarized monolayer was obtained as determined by resistance measurements. The live cells were then incubated overnight with amino terminally, fluorescein (FAM) coupled peptides: (A) 2 μM of ATQITWV (SEQ ID NO:214), (B) 2 μM ATQITWA (SEQ ID NO:215) or (C) 5 μM ASKITWV (SEQ ID NO:216) added into the media of the lower transwell chamber. The cells were then washed with Hanks Balanced Salt Solution (HBSS) with 1.8 mM CaCl2, fixed with ice cold methanol, permeabilized with 0.25% Triton X-100 in PBS, blocked with 5% donkey serum in PBS and stained with 1.5 μg monoclonal anti-γ-catenin antibody. The basolateral marker protein γ-catenin was visualized using Cy3-conjugated donkey anti-mouse antibodies (Jackson Immunolabs), diluted 1:1000. Processed filters were excised with a razor and mounted between a slide and coverslip with Vectashield mounting medium (Vector Labs; Burlingame, Calif.). Images were taken on a Leica confocal microscope using a 63X oil immersion objective.
Caco-2 cells were grown on polycarbonate transwell filters until a fully polarised monolayer was obtained. The live cells were then incubated overnight with the fluorescein (green) coupled peptides: (A) 2 mM of ATQITWV (SEQ ID NO:214), (B) 2 mM ATQITWA (SEQ ID NO:215) or (C) 5 mM ASKITW (SEQ ID NO:221) (FIG. 5). The cells were then fixed and counterstained with antibodies against the protein γ-catenin (FIG. 5). […] Substitution of A for V at the peptide carboxyl terminus should disrupt the interaction of a ligand with its cognate PDZ binding partner.

MAGI 3 PDZ2 = biological target: T1, MAGI 3 PDZ2 (Homo sapiens, UniProt Q5TCQ9); experiment: Biotinylated peptide pull-down of PDZ domains from HEK 293 cell extracts; format: binding; design: PDZ 2; aa; expressed in transfected cells; host or cells: HEK 293; conditions: GST fusion, FIG. 4, FIG. 8
T1 sequence (Q5TCQ9 584-707 isoform Q5TCQ9-2): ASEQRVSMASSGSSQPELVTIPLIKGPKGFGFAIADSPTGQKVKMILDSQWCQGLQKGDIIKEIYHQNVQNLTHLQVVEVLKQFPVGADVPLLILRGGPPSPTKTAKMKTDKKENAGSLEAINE
Method: (§1) HEK 293 (293) cells grown in high glucose Dulbeco's Modified Eagle Medium (DMEM), 10% fetal calf serum, 1× non-essential amino acid supplement, 1×L-glutamine supplement, 10 mM HEPES (pH 7.4) and penicillin/streptomycin (all from Life Technologies) to ˜80% confluence were transfected with 2 μg DNA/35 mm diameter well (for example, DNAs encoding the sequences described in EXAMPLE 5.0) using Fugene reagent (Roche Biochemical). 24 hours post-transfection, cells were washed once with PBS and then scraped into 1 ml/well of 20 mM Tris (pH 7.5), 1% Triton X-100, 200 mM NaCl, 1 mM dithiothreitol, and protease inhibitor cocktail with EDTA (Roche Biochemical, catalog #1836145) and homogenized gently with three to five strokes in a dounce (Wheaton) using a loose glass pestle. Extracts were centrifuged at 12,000 rpm in a tabletop centrifuge at 4° C. for 10 minutes; the supernatant was combined with an equal volume of homogenization buffer without NaCl to achieve a final salt concentration of 100 mM and frozen at −70° C. until use. For peptide-pull-down experiments of MAGI-3 PDZ domains or the ERBIN PDZ domain, 100 μl of 293 cell extract was diluted to 400 μl in binding buffer (homogenization buffer modified to 100 mM NaCl) and incubated with 10 μM amino-terminally biotinylated peptide and 100 μl of strepavidin agarose (Sigma) for 2 hours on a rotator at 4° C. The beads were washed three times with 1 ml binding buffer and boiled in 60 μl of Laemmli's reducing sample buffer, of which 15 μl was loaded onto SDS-gels. PDZ domains co-precipitated with a given biotinylated peptide were visualized by immunoblot analysis using anti-GST (Genentech) or anti-GFP (Clontech) antibodies. […] Binding of 293 cell-expressed proteins was detected by immunoblot analysis using antibodies against GFP (Clontech) and Her 2 (Santa Cruz Biotechnology). […]

MAGI-3 PDZ 3 = biological target: T2, MAGI-3 PDZ 3 (Homo sapiens, UniProt Q5TCQ9); experiment: as above; format: binding; conditions: GST fusion, FIG. 4
T2 construct: PDZ 3; aa; expressed in transfected cells; host or cells: HEK 293
T2 sequence (Q5TCQ9 741-840 isoform Q5TCQ9-2): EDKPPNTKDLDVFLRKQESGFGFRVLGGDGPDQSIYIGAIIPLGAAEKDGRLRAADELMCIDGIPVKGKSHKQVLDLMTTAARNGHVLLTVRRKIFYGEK
Method: as §1, with “use.” for “use. For peptide-pull-down experiments of MAGI-3 PDZ domains or the ERBIN PDZ domain, 100 μl of 293 cell extract was diluted to 400 μl in binding buffer (homogenization buffer modified to 100 mM NaCl) and incubated with 10 μM amino-terminally biotinylated peptide and 100 μl of strepavidin agarose (Sigma) for 2 hours on a rotator at 4° C. The beads were washed three times with 1 ml binding buffer and boiled in 60 μl of Laemmli's reducing sample buffer, of which 15 μl was loaded onto SDS-gels. PDZ domains co-precipitated with a given biotinylated peptide were visualized by immunoblot analysis using anti-GST (Genentech) or anti-GFP (Clontech) antibodies.”

hZO1 PDZ1 = biological target: T3, hZO1 PDZ1 (Homo sapiens, UniProt Q07157); experiment: IC50 (nM) | hZO1 PDZ1 | 5 nM | B01-88 | Bio-GGWRWTTWL (SEQ ID NO: 684) | 36 nM
T3 construct: Human ZO1 (NM_003257) PDZ1; GST; made in house
Method: Table printed on a drawing sheet, FIG. 12A
Head of the field: IC50 (nM) | hZO1 PDZ1 | 5 nM | B01-88 | Bio-GGWRWTTWL (SEQ ID NO: 684) | 36 nM
The patent's description of the figure: FIG. 12. IC50 values indicating binding affinities of various peptides to PDZ domains
First copying reader's note: Upper left part of a table split over FIG. 12A-12D; further receptor columns and further peptides are on the other sheets.
Where the first naming reader finds the target: head: IC50 (nM) | hZO1 PDZ1 | 5 nM | B01-88

[1] = biological target: GST-MAGI-3 PDZ 2 (aa. 584-707 of SEQ ID NO:200) (human) [GST: P08515]; experiment: competition ELISA
[2] = biological target: GST-MAGI-3 PDZ 2 (aa. 584-707 of SEQ ID NO:200) (human) [GST: P08515]; experiment: competition ELISA: peptide blocks GST-PDZ binding to immobilized peptide
[3] = biological target: ERBIN PDZ-GST fusion protein (aa. 1217-1371 of SEQ ID NO:201) (human) [GST: P08515]; experiment: competition ELISA: ERBIN PDZ-GST binding to immobilized biotin-PDZ 501
ERBIN PDZ domain = ERBIN PDZ domain (Homo sapiens, UniProt Q96RT1); experiment: GST-PDZ co-precipitation of proteins from transfected HEK 293 cell extracts; format: binding; design: made in house; host or cells: E. coli; conditions: extracts from transfected HEK 293 cells; FIG. 6
Method: HEK 293 (293) cells grown in high glucose Dulbeco's Modified Eagle Medium (DMEM), 10% fetal calf serum, 1× non-essential amino acid supplement, 1×L-glutamine supplement, 10 mM HEPES (pH 7.4) and penicillin/streptomycin (all from Life Technologies) to ˜80% confluence were transfected with 2 μg DNA/35 mm diameter well (for example, DNAs encoding the sequences described in EXAMPLE 5.0) using Fugene reagent (Roche Biochemical). 24 hours post-transfection, cells were washed once with PBS and then scraped into 1 ml/well of 20 mM Tris (pH 7.5), 1% Triton X-100, 200 mM NaCl, 1 mM dithiothreitol, and protease inhibitor cocktail with EDTA (Roche Biochemical, catalog #1836145) and homogenized gently with three to five strokes in a dounce (Wheaton) using a loose glass pestle. Extracts were centrifuged at 12,000 rpm in a tabletop centrifuge at 4° C. for 10 minutes; the supernatant was combined with an equal volume of homogenization buffer without NaCl to achieve a final salt concentration of 100 mM and frozen at −70° C. until use. […] Binding of 293 cell-expressed proteins was detected by immunoblot analysis using antibodies against GFP (Clontech) and Her 2 (Santa Cruz Biotechnology).
Amino acids 1217-1371 of ERBIN and 584-707 corresponding to PDZ 2 of MAGI-3 (Sidhu et al., 2000); were expressed in E. coli as GST fusions. […] Equal volumes of extract and depleted extract (sup.) were analyzed.

[4] = biological target: GST-MAGI-3 PDZ 3 (aa. 741-840 of SEQ ID NO:200) (human) [GST: P08515]; experiment: competition ELISA: peptide blocks GST-PDZ binding to immobilized peptide
[5] = biological target: GST-MAGI-3 PDZ 3 (aa. 741-840 of SEQ ID NO:200) (human) [GST: P08515]; experiment: competition ELISA
[6] = biological target: T4, GST-MAGI-3 PDZ 2 (aa. 584-707 of SEQ ID NO:200) (human, UniProt P08515 1-218 = GST); experiment: competition ELISA
[7] = biological target: ERBIN PDZ-GST fusion protein (aa. 1217-1371 of SEQ ID NO:201) (human, UniProt P08515 1-218 = GST); experiment: competition ELISA: ERBIN PDZ-GST binding to immobilized biotin-PDZ 501
[8] = biological target: T4, GST-MAGI-3 PDZ 2 (aa. 584-707 of SEQ ID …); experiment: competition ELISA: peptide blocks GST-PDZ binding to immobilized peptide

GST-MAGI-3 PDZ 2 (aa. 584-707 of SEQ ID NO:200) (human) [GST: P08515], sequence (P08515 whole entry, the tested form may be a part): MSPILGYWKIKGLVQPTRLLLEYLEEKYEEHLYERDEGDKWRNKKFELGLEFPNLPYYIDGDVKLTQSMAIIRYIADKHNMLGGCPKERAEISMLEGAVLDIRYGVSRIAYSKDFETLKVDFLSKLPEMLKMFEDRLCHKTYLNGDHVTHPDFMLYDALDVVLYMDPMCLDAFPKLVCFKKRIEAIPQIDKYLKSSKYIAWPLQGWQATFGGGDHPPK
ERBIN PDZ-GST fusion protein (aa. 1217-1371 of SEQ ID NO:201), sequence (P08515 whole entry, the tested form may be a part): as above
GST-MAGI-3 PDZ 3 (aa. 741-840 of SEQ ID NO:200) (human) [GST: P08515], sequence (P08515 whole entry): as the sequence (P08515 whole entry, the tested form may be a part) above
T4 sequence (P08515 whole entry, the tested form may be a part): as above
ERBIN PDZ-GST fusion protein (aa. 1217-1371 of SEQ ID NO:201) (human) [GST: P08515], sequence (P08515 whole entry, the tested form may be a part): as above
ERBIN PDZ domain, sequence (Q96RT1 1258-1412): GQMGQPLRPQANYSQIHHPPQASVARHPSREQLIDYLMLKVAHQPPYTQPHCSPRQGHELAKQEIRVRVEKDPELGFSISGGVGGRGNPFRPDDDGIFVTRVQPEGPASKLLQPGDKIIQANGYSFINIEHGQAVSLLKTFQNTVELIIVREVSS
T3 sequence (Q07157 23-110): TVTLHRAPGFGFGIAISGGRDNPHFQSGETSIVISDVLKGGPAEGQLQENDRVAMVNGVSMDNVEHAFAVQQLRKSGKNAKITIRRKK

Molecule: ASKITWV [amino terminally fluorescein (FAM) coupled peptide]
- localization of fluorescein coupled peptide in live cells (Caco-2 cells): localize apically on the lateral membrane to the tight junction

Molecule: ATQITKV [biotinylated peptide with W to K change at the (−1) position, reference compound]
- precipitation of MAGI-3 PDZ 2 from cell extracts by biotinylated peptide (MAGI 3 PDZ2): did not bind
- precipitation of MAGI-3 PDZ 3 from cell extracts by biotinylated peptide (MAGI-3 PDZ 3): did not bind

Molecule: ATQITWA [V to A change at the (0) position; used biotinylated or fluorescein coupled]
- precipitation of MAGI-3 PDZ 2 from cell extracts by biotinylated peptide (MAGI 3 PDZ2): did not bind
- localization of fluorescein coupled peptide in live cells (Caco-2 cells): does not target to the tight junction
- precipitation of MAGI-3 PDZ 3 from cell extracts by biotinylated peptide (MAGI-3 PDZ 3): did not bind

Molecule: ATQITWV [derivative of the C-terminus of PTEN, K to W at (−1); used biotinylated or fluorescein coupled]
- precipitation of MAGI-3 PDZ 2 from cell extracts by biotinylated peptide (MAGI 3 PDZ2): efficiently precipitate only the PDZ domain that they were phage-selected against
- localization of fluorescein coupled peptide in live cells (Caco-2 cells): localize apically on the lateral membrane to the tight junction

- IC50 (hZO1 PDZ1): 31 nM
Molecule: Ac-YRWTTWL [10 | 01-28, SEQ ID NO: 649: N^AC-YRWTTWL]

- IC50 [1]: 1000 nM
- IC50 [2]: 1400 nM
Molecule: CSWV (peptide)

- IC50 [3]: > 400 µM
Molecule: DVPV (peptide)

- binding to / precipitation by GST-ERBIN PDZ (ERBIN PDZ domain): specifically precipitated
Molecule: Her 2: Her 2 receptor, a previously reported ligand for the ERBIN PDZ

- IC50 [4]: 0.9 µM
Molecule: TRWWFDI (peptide)

- fold reduction in binding affinity against the unamidated peptide [5]: 300 fold
- IC50 [4]: 300 µM
Molecule: TRWWFDI-NH2 (peptide)

- IC50 [1]: 4000 nM
- IC50 [2]: 4000 nM
Molecule: VTWV (peptide)

- IC50 [6]: 200 µM
B1: ITKV (peptide)
peptide: ITKV
notes: also called MAGI 3 PDZ2 domain "naturally-selected" ligand

- IC50 [7]: > 100 µM
Molecule: DVPA (also called DVPA ligand)

- IC50 [8]: 300 nM
Molecule: DGICSWV (synthetic peptide)

- IC50 [7]: 0.5 to 1 µM
Molecule: TGWETWV (test peptide in solution)

- IC50 [8]: 800 nM
Molecule: ASKVTWV (synthetic peptide)

- IC50 [7]: 4.5 to 5 µM
Molecule: TGWDTWV

From patent publication US20030148264A1, “Phage displayed PDZ domain ligands” (GENENTECH, INC., priority 2001, published 2003)
